Results reported in the RNAGym collection of RNA variant scans (doi:10.1093/molbev/msab373).

B1: Azoarcus group I ribozyme (parent)
chain: GUGCCUUGCGCCGGGAAACCACGCAAGGGAUGGUGUCAAAUUCGGCGAAACCUAAGCGCCCGCCCGGGCGUAUGGCAACGCCGAGCCAAGCUUCGGCGCCUGCGCCGAUGAAGGUGUAGAGACUAGACGGCACCCACCUAAGGCAAACGCUAUGGUGAAGGCAUAGUCCAGGGAGUGGCGAAAGUCACACAAACCGG

Variants of: B1
Test: reverse-splicing fitness (ratio to wild type); higher = more active; in vitro selection; Mg2+ level not given
Outline: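 An in vitro group I ribozyme library with randomized positions was T7-transcribed and gel-purified. In triplicate, 10 pmol RNA in EPPS pH 7.5 was reacted with 50 pmoles of a 30-nt RNA substrate for 1 h at 37 °C across several added MgCl2 levels (1–48 mM), then stopped with EDTA. Products were reverse transcribed from a substrate-complementary primer, PCR-amplified and sequenced (HiSeq 4000). Fitness is a variant's read proportion after selection over that before, normalised to wild type.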

| Variant | reverse-splicing fitness |
| --- | --- |
| C82G A111G A120C A145C C150U C169U | 0.0103 |
| C82G A111G A120C A145C C150U C169G | 0.00849 |
| C82G A111G A120C A145C C150U C169A | 0.00918 |
| C82G A111C A145G C150U C169G U176A | 0.0107 |
| C82G A111C A145G C150U C169G U176C | 0.0159 |
| C82G A111C A145G C150U C169G U176G | 0.00611 |
| C82G A111C A145G C169U | 0.0141 |
| C82G A111C A145G C169G | 0.00916 |
| C82G A111C A145G C169A | 0.0104 |
| C82G A111G A120C A145G C169U | 0.015 |
| C82G A111G A120C A145G C169A | 0.00771 |
| C82G A111G A120C A145G C169G | 0.0079 |
| C82G A111C A145U C150A U176G | 0.0105 |
| C82G A111C A145U C150A U176C | 0.0248 |
| C82G A111C A145U C150A U176A | 0.0202 |
| C82G A111G A120C A145G C150U C169A U176G | 0.00689 |
| C82G A111G A120C A145G C150U C169A U176C | 0.0173 |
| C82G A111G A120C A145G C150U C169A U176A | 0.0156 |
| C82G A111G A120C A145C C150U U176C | 0.0167 |
| C82G A111G A120C A145C C150U U176G | 0.00724 |
| C82G A111G A120C A145C C150U U176A | 0.0141 |

| Variant | reverse-splicing fitness |
| --- | --- |
| C82G A111C C150G C169G | 0.00655 |
| C82G A111C C150G C169A | 0.00894 |
| C82G A111C C150G C169U | 0.00898 |
| C82G A111G A120C A145U C150A C169U U176A | 0.0146 |
| C82G A111C A145U C150G | 0.0245 |
| C82G A111C A145U C150A | 0.0253 |
| C82G A111C A145U C150U | 0.172 |
| C82G A111C A145G C150A C169A U176C | 0.0204 |
| C82G A111C A145G C150A C169A U176G | 0.0086 |
| C82G A111C A145G C150A C169A U176A | 0.0179 |
| C82G A111C C150G C169A U176C | 0.0108 |
| C82G A111C C150G C169A U176G | 0.00647 |
| C82G A111C C150G C169A U176A | 0.00955 |
| C82G A111C C150G C169U U176A | 0.00763 |
| C82G A111C C150G C169U U176G | 0.00599 |
| C82G A111C C150G C169U U176C | 0.0127 |
| C82G A111G A120C A145C C169G U176G | 0.0055 |
| C82G A111G A120C A145C C169G U176C | 0.0182 |
| C82G A111G A120C A145C C169G U176A | 0.0254 |
| C82G A111G A120C A145G C150U C169U U176C | 0.0145 |
| C82G A111G A120C A145G C150U C169U U176A | 0.0133 |

| Variant | reverse-splicing fitness |
| --- | --- |
| C82G A111G A120C A145G C150U C169U U176G | 0.00664 |
| C82G A111C C150G U176A | 0.00967 |
| C82G A111C C150G U176G | 0.00449 |
| C82G A111C C150G U176C | 0.0159 |
| C82G A111G A120C A145C C150A | 0.011 |
| C82G A111G A120C A145C C150U | 0.0209 |
| C82G A111G A120C A145C C150G | 0.0108 |
| C82G A111G A120C A145G C150A U176G | 0.0119 |
| C82G A111G A120C A145G C150A U176C | 0.0254 |
| C82G A111G A120C A145G C150A U176A | 0.0144 |
| C82G A111C C169A | 0.00871 |
| C82G A111C C169U | 0.0148 |
| C82G A111C C169G | 0.00928 |
| C82G A111G A120C A145C C150G C169A U176A | 0.0108 |
| C82G A111G A120C A145C C150G C169A U176C | 0.0103 |
| C82G A111G A120C A145C C150G C169A U176G | 0.00627 |
| C82G A111G A120C A145G C150A C169A | 0.0118 |
| C82G A111G A120C A145G C150A C169G | 0.0104 |
| C82G A111G A120C A145G C150A C169U | 0.0118 |
| C82G A111C A145U C169A U176G | 0.00775 |
| C82G A111C A145U C169A U176C | 0.0153 |

| Variant | reverse-splicing fitness |
| --- | --- |
| C82G A111C A145U C169A U176A | 0.0149 |
| C82G A111C A145G C150U C169A U176A | 0.0153 |
| C82G A111C A145G C150U C169A U176C | 0.0146 |
| C82G A111C A145G C150U C169A U176G | 0.00789 |
| C82G A111C A145G C150A C169G U176A | 0.0149 |
| C82G A111C A145G C150A C169G U176G | 0.00825 |
| C82G A111C A145G C150A C169G U176C | 0.0256 |
| C82G A111G A120C A145C C150G C169U U176C | 0.0131 |
| C82G A111G A120C A145C C150G C169U U176A | 0.00714 |
| C82G A111G A120C A145C C150G C169U U176G | 0.00551 |
| C82G A111G A120C A145G C150G C169G U176A | 0.0109 |
| C82G A111G A120C A145G C150G C169G U176G | 0.00653 |
| C82G A111G A120C A145G C150G C169G U176C | 0.0112 |
| C82G A111C A145U C150A C169U | 0.0112 |
| C82G A111C A145U C150A C169G | 0.0077 |
| C82G A111C A145U C150A C169A | 0.00994 |
| C82G A111C A145U C150U C169U U176A | 0.0161 |
| C82G A111C A145U C150U C169U U176G | 0.00778 |
| C82G A111C A145U C150U C169U U176C | 0.0115 |
| C82G A111G A120C A145G C150G C169U | 0.00987 |
